{
  "source": "IntAct's records for PubMed 19172740",
  "parents": {"B1": {"name": "tRNA N6-adenosine threonylcarbamoyltransferase (Saccharomyces cerevisiae), P36132 (parent)", "chain": "MVNLNTIPPKNGRDYYIALGLEGSANKLGVGIVKHPLLPKHANSDLSYDCEAEMLSNIRDTYVTPPGEGFLPRDTARHHRNWCIRLIKQALAEADIKSPTLDIDVICFTKGPGMGAPLHSVVIAARTCSLLWDVPLVGVNHCIGHIEMGREITKAQNPVVLYVSGGNTQVIAYSEKRYRIFGETLDIAIGNCLDRFARTLKIPNEPSPGYNIEQLAKKAPHKENLVELPYTVKGMDLSMSGILASIDLLAKDLFKGNKKNKILFDKTTGEQKVTVEDLCYSLQENLFAMLVEITERAMAHVNSNQVLIVGGVGCNVRLQEMMAQMCKDRANGQVHATDNRFCIDNGVMIAQAGLLEYRMGGIVKDFSETVVTQKFRTDEVYAAWRD"}, "B2": {"name": "EKC/KEOPS complex subunit BUD32 (Saccharomyces cerevisiae), P53323 (parent)", "chain": "MTQEFIDKVSSYLTPDVDIAPISQGAEAIVFTTTTHPYLPRAKDSHQKYIIKYRPPKRYRHPQIDQALTKHRTLNESRLLAKLYLIPGLCVPQLIACDPYNGFIWLEFLGEDLPGGHGFSNLKNFLWMHDQDPYSDLVATTLRKVGRQIGLLHWNDYCHGDLTSSNIVLVRDGARWTPHLIDFGLGSVSNLVEDKGVDLYVLERAILSTHSKHAEKYNAWIMEGFEEVYREQGAKGAKKLKEVTKRFEEVRLRGRKRSMLG", "partner": "B1 chain"}, "B3": {"name": "EKC/KEOPS complex subunit BUD32 (Saccharomyces cerevisiae), P53323 (parent)", "chain": "B2 chain", "partner": "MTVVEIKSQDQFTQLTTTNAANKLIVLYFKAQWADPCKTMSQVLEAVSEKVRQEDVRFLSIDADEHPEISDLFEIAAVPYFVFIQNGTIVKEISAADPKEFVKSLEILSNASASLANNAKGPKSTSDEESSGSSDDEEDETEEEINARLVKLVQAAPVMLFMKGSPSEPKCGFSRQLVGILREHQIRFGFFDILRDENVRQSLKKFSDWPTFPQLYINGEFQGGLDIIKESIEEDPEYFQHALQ"}},
  "data": [
    {"variants_of": "B1", "settings": "with bud32_yeast BUD32, P53323", "values": [
      {"variant": "MVNLNTIPPKNGRDYYIALGLEGSANKLGVGIVKHPLLPKHANSDLSYDCEAEMLSNIRDTYVTPPGEGFLPRDTARHHRNWCIRLIKQALAEADIKSPTLDIDVICFTKGPGMGAPLHSVVIAARTCSLLWDVPLVGVNHCIGHIEMGREITKAQNPVVLYVSGGNTQVIAYSEKRYRIFGETLDIAIGNCLDRFARTLKIPNEPSPGYNIEQLAKKAPHKENLVELPYTVKGMDLSMSGILASIDLLAKDLFKGNKKNKILFDKTTGEQKVTVEDLCYSLQENLFAMLVRITERAMAHVNSNQVLIVGGVGCNVRLQEMMAQMCKDRANGQVHATDNRFCIDNGVMIAQAGLLEYRMGGIVKDFSETVVTQKFRTDEVYAAWRD", "note": "[E292R]", "effect of a mutation on the interaction": "disrupting interaction"},
      {"variant": "MVNLNTIPPKNGRDYYIALGLEGSANKLGVGIVKHPLLPKHANSDLSYDCEAEMLSNIRDTYVTPPGEGFLPRDTARHHRNWCIRLIKQALAEADIKSPTLDIDVICFTKGPGMGAPLHSVVIAARTCSLLWDVPLVGVNHCIGHIEMGREITKAQNPVVLYVSGGNTQVIAYSEKRYRIFGETLDIAIGNCLDRFARTLKIPNEPSPGYNIEQLAKKAPHKENLVELPYTVKGMDLSMSGILASIDLLAKDLFKGNKKNKILFDKTTGEQKVTVEDLCYSLQENLFAMLVEITRRAMAHVNSNQVLIVGGVGCNVRLQEMMAQMCKDRANGQVHATDNRFCIDNGVMIAQAGLLEYRMGGIVKDFSETVVTQKFRTDEVYAAWRD", "note": "[E295R]", "effect of a mutation on the interaction": "disrupting interaction"}
    ]},
    {"variants_of": "B1", "settings": "with bud32_yeast BUD32, P53323", "remark": "another data set of the same source", "values": [
      {"variant": "MVNLNTIPPKNGRDYYIALGLEGSANKLGVGIVKHPLLPKHANSDLSYDCEAEMLSNIRDTYVTPPGEGFLPRDTARHHRNWCIRLIKQALAEADIKSPTLDIDVICFTKGPGMGAPLHSVVIAARTCSLLWDVPLVGVNHCIGHIEMGREITKAQNPVVLYVSGGNTQVIAYSEKRYRIFGETLDIAIGNCLDRFARTLKIPNEPSPGYNIEQLAKKAPHKENLVELPYTVKGMRLSMSGILASIDLLAKDLFKGNKKNKILFDKTTGEQKVTVEDLCYSLQENLFAMLVEITERAMAHVNSNQVLIVGGVGCNVRLQEMMAQMCKDRANGQVHATDNRFCIDNGVMIAQAGLLEYRMGGIVKDFSETVVTQKFRTDEVYAAWRD", "note": "[D236R]", "effect of a mutation on the interaction": "decreasing interaction"}
    ]},
    {"variants_of": "B2", "settings": "with kae1_yeast KAE1, P36132", "values": [
      {"variant": "K57E", "effect of a mutation on the interaction": "disrupting interaction"}
    ]},
    {"variants_of": "B2", "settings": "with kae1_yeast KAE1, P36132", "remark": "another data set of the same source", "values": [
      {"variant": "Y59E", "effect of a mutation on the interaction": "disrupting interaction"}
    ]},
    {"variants_of": "B2", "settings": "with kae1_yeast KAE1, P36132", "remark": "another data set of the same source", "values": [
      {"variant": "R60E", "effect of a mutation on the interaction": "disrupting interaction"}
    ]},
    {"variants_of": "B2", "settings": "with kae1_yeast KAE1, P36132", "remark": "another data set of the same source", "values": [
      {"variant": "R72E", "effect of a mutation on the interaction": "decreasing interaction"}
    ]},
    {"variants_of": "B3", "settings": "with glrx4_yeast GRX4, P32642", "values": [
      {"variant": "D161A", "effect of a mutation on the interaction": "disrupting interaction"}
    ]}
  ]
}
